Measured values published in paper PMC3488251 (Nucleic Acids Research, 2012).

Target: T1, XPF (UniProt Q92889 1-916)
T1 sequence (looked up): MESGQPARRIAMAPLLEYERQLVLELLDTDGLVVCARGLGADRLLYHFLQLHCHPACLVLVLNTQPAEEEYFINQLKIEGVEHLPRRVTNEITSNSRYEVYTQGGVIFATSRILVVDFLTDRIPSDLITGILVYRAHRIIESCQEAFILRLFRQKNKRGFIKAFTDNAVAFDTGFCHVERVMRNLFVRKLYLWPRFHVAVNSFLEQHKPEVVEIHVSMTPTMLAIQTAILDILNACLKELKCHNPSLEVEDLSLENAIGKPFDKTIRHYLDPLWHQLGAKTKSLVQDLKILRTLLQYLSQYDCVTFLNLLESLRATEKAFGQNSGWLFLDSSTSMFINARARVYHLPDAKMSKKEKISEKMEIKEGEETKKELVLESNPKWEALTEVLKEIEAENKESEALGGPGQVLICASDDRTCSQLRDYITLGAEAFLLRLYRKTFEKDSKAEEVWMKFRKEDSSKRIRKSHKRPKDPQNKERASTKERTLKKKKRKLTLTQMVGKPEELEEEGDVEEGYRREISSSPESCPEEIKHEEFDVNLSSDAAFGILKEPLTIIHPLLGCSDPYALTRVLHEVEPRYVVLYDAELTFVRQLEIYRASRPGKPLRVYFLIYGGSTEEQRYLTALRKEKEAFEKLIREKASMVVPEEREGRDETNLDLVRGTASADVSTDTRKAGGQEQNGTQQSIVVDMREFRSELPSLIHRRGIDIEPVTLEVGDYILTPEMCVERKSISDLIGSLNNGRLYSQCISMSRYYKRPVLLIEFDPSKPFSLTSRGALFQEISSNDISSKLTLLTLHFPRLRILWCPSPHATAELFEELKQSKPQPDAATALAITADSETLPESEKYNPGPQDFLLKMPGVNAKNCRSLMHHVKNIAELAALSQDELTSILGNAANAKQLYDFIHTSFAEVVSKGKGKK
Assay: SPR

Kd: ~5 nM
B1: ERCC1 (natural protein, UniProt P07992 1-297, looked up)
chain: MDPGKDKEGVPQPSGPPARKKFVIPLDEDEVPPGVAKPLFRSTQSLPTVDTSAQAAPQTYAEYAISQPLEGAGATCPTGSEPLAGETPNQALKPGAKSNSIIVSPRQRGNPVLKFVRNVPWEFGDVIPDYVLGQSTCALFLSLRYHNLHPDYIHGRLQSLGKNFALRVLLVQVDVKDPQQALKELAKMCILADCTLILAWSPEEAGRYLETYKAYEQKPADLLMEKLEQDFVSRVTECLTTVKSVNKTDSQTLLTTFGSLEQLIAASREDLALCPGLGPQKARRLFDVLHEPFLKVP
